T1: human EphB6 extracellular region-SEAP-His protein (human, UniProt O15197 32-594)
T1 construct: extracellular domain; also called hEphB6-SEAP-His
T1 sequence (looked up): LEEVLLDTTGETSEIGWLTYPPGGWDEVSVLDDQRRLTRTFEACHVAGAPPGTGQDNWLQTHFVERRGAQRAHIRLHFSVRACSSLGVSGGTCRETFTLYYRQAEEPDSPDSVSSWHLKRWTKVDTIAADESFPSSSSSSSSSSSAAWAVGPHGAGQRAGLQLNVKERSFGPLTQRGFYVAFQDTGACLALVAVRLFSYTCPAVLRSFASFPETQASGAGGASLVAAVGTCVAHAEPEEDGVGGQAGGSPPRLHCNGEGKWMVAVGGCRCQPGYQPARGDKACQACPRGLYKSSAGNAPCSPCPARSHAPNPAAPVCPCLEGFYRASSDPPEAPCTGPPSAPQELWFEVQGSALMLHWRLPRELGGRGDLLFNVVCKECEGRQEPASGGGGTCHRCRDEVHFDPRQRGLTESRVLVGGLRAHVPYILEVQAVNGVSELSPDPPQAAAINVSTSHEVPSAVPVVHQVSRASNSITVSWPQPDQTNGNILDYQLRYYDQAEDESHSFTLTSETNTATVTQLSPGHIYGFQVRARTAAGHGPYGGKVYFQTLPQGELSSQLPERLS

T2: human EphA7 extracellular region-SEAP-His protein (human, UniProt Q15375 28-555)
T2 construct: extracellular domain; also called hEphA7-SEAP-His
T2 sequence (looked up): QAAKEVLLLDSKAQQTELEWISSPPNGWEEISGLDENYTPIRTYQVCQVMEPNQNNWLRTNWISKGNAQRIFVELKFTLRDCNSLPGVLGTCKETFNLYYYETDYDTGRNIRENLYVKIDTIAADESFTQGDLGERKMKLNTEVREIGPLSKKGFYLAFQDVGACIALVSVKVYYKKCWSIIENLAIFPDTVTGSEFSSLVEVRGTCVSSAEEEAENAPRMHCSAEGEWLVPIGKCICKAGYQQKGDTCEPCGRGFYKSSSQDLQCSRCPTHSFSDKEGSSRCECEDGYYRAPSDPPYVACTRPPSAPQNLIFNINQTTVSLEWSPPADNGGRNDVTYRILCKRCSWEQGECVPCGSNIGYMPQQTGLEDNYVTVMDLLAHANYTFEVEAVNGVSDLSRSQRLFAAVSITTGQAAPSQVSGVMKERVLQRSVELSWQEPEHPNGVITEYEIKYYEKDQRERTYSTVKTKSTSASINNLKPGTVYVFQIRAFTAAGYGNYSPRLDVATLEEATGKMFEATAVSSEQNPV

T3: human EphA1 extracellular region-SEAP-His protein (human, UniProt P21709 26-547)
T3 construct: extracellular domain; also called hEphA1-SEAP-His
T3 sequence (looked up): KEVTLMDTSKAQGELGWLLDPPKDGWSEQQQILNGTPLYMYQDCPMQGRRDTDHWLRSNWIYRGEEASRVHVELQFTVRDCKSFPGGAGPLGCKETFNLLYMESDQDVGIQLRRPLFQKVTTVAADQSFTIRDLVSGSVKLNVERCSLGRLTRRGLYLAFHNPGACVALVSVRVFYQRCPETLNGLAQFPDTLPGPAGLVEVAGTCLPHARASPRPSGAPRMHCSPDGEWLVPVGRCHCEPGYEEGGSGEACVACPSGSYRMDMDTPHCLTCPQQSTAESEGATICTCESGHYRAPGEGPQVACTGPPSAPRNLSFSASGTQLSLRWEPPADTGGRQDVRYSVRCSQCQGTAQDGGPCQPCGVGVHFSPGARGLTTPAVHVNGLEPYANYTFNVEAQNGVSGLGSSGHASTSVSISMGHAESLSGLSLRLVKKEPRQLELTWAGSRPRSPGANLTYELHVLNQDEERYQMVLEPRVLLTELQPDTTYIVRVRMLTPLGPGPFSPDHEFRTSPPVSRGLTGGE

T4: human EphA10 extracellular region-SEAP-His protein (human, UniProt Q5JZY3 34-565)
T4 construct: extracellular domain; also called hEphA10-SEAP-His
T4 sequence (looked up): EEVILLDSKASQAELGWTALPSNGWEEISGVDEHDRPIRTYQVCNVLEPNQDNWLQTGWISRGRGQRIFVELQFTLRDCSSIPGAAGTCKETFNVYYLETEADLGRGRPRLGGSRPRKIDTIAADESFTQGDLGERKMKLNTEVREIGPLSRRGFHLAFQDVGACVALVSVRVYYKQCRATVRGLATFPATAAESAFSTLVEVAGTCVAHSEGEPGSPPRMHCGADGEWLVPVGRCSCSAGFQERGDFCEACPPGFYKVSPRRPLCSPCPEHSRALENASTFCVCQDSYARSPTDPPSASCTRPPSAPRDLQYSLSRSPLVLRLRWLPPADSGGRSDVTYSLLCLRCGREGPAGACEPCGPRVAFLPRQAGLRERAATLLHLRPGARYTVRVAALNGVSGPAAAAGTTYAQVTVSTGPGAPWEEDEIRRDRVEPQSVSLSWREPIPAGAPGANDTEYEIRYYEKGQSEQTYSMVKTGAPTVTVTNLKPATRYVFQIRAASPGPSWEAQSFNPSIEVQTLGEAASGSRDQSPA


Key:
Assay in all cases: ELISA
[1] = target: T1, human EphB6 extracellular …
[2] = target: T2, human EphA7 extracellular …
[3] = target: T5, human EphA5 extracellular region-SEAP-His protein (human, UniProt P54756 25-573)
T5 construct: extracellular domain; also called hEphA5-SEAP-His
T5 sequence (P54756 25-573): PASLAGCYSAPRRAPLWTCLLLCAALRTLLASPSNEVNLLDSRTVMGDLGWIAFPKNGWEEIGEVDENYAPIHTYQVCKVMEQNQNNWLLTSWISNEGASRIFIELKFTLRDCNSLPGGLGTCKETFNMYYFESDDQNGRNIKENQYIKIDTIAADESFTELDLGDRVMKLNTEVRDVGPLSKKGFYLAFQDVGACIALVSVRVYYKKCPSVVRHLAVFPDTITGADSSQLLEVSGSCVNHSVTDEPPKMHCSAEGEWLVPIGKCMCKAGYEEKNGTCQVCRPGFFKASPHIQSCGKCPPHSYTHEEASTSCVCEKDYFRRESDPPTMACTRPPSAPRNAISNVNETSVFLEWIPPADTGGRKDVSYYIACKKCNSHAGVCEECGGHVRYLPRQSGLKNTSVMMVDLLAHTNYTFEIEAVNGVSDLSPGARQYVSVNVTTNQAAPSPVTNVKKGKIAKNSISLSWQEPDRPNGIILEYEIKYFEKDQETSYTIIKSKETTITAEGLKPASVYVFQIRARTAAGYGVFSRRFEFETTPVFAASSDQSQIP

[4] = target: T3, human EphA1 extracellular …
SEAP-His = SEAP-His (UniProt P05187 23-511)
Chain of SEAP-His (P05187 23-511): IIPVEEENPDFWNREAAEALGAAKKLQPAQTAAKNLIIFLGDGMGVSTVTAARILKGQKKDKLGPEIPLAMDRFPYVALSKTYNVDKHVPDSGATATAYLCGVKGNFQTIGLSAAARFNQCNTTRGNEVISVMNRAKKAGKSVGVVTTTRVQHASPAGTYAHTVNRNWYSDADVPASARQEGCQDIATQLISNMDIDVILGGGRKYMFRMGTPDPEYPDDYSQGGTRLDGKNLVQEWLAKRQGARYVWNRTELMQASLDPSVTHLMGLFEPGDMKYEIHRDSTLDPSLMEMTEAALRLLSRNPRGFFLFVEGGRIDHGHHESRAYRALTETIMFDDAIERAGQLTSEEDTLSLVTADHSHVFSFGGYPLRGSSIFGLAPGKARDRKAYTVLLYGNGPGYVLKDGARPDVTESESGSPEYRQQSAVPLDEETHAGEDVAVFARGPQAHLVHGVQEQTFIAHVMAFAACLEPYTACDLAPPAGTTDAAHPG

[5] = target: T4, human EphA10 extracellular …

Binder | A450 as % of hEphA4-SEAP-His [1] [%] | A450 as % of hEphA4-SEAP-His [2] [%] | A450 as % of hEphA4-SEAP-His [3] [%] | A450 as % of hEphA4-SEAP-His [4] [%] | A450 as % of hEphA4-SEAP-His (SEAP-His) [%] | A450 as % of hEphA4-SEAP-His [5] [%]
humanized antibody No. 145 (antibody, human IgG2, human Ig kappa; also called L1-5/HK2) heavy: QVQLVQSGSELKKPGASVKVSCKASGYTFTDYSMHWVRQAPGQGLKWMGWINTETGEPTYADDFKGRFVFSLDTSVSTAYLQISSLKAEDTAVYYCARIPLYYYGSRYWYFDVWGQGTTVTVSSASTKGPSVFPLAPSSRSTSESTAALGCLVKDYFPEPVTVSWNSGALTSGVHTFPAVLQSSGLYSLSSVVTVPSSNFGTQTYTCNVDHKPSNTKVDKTVERKSCVECPPCPAPPAAAPSVFLFPPKPKDTLMISRTPEVTCVVVDVSHEDPEVQFNWYVDGVEVHNAKTKPREEQFNSTFRVVSVLTVVHQDWLNGKEYKCKVSNKGLPAPIEKTISKTKGQPREPQVYTLPPSREEMTKNQVSLTCLVKGFYPSDIAVEWESNGQPENNYKTTPPMLDSDGSFFLYSKLTVDKSRWQQGNVFSCSVMHEALHNHYTQKSLSLSPG light: DIQMTQSPSSLSASVGDRVTITCRASENIYRNLAWYQQKPGKAPKLLLYAATNLADGVPSRFSGSGSGTDYTLTISSLQSEDFATYYCQHFWGTPWTFGQGTKVEIKRTVAAPSVFIFPPSDEQLKSGTASVVCLLNNFYPREAKVQWKVDNALQSGNSQESVTEQDSKDSTYSLSSTLTLSKADYEKHKVYACEVTHQGLSSPVTKSFNRGEC | 6.6 | 6.3 | 6.6 | 6.7 | 6.4 | 6.5
humanized antibody No. 151 (antibody, human IgG2, human Ig kappa; also called L1-5/HA4) heavy: QIQLVQSGSELKKPGASVKVSCKASGYTFTDYSMHWVRQAPGQGLKWMGWINTETGEPTYAQGFTGRFVFSLDTSVSTAYLQISSLKAEDTAVYYCARIPLYYYGSRYWYFDVWGQGTTVTVSSASTKGPSVFPLAPSSRSTSESTAALGCLVKDYFPEPVTVSWNSGALTSGVHTFPAVLQSSGLYSLSSVVTVPSSNFGTQTYTCNVDHKPSNTKVDKTVERKSCVECPPCPAPPAAAPSVFLFPPKPKDTLMISRTPEVTCVVVDVSHEDPEVQFNWYVDGVEVHNAKTKPREEQFNSTFRVVSVLTVVHQDWLNGKEYKCKVSNKGLPAPIEKTISKTKGQPREPQVYTLPPSREEMTKNQVSLTCLVKGFYPSDIAVEWESNGQPENNYKTTPPMLDSDGSFFLYSKLTVDKSRWQQGNVFSCSVMHEALHNHYTQKSLSLSPG light: DIQMTQSPSSLSASVGDRVTITCRASENIYRNLAWYQQKPGKAPKLLLYAATNLADGVPSRFSGSGSGTDYTLTISSLQSEDFATYYCQHFWGTPWTFGQGTKVEIKRTVAAPSVFIFPPSDEQLKSGTASVVCLLNNFYPREAKVQWKVDNALQSGNSQESVTEQDSKDSTYSLSSTLTLSKADYEKHKVYACEVTHQGLSSPVTKSFNRGEC | 7.1 | 6.8 | 7 | 7.1 | 6.8 | 6.6
humanized antibody No. 152 (antibody, human IgG2, human Ig kappa; also called L1-5/HA1) heavy: QVQLVQSGSELKKPGASVKVSCKASGYTFTDYSMHWVRQAPGQGLEWMGWINTETGEPTYAQGFTGRFVFSLDTSVSTAYLQISSLKAEDTAVYYCARIPLYYYGSRYWYFDVWGQGTTVTVSSASTKGPSVFPLAPSSRSTSESTAALGCLVKDYFPEPVTVSWNSGALTSGVHTFPAVLQSSGLYSLSSVVTVPSSNFGTQTYTCNVDHKPSNTKVDKTVERKSCVECPPCPAPPAAAPSVFLFPPKPKDTLMISRTPEVTCVVVDVSHEDPEVQFNWYVDGVEVHNAKTKPREEQFNSTFRVVSVLTVVHQDWLNGKEYKCKVSNKGLPAPIEKTISKTKGQPREPQVYTLPPSREEMTKNQVSLTCLVKGFYPSDIAVEWESNGQPENNYKTTPPMLDSDGSFFLYSKLTVDKSRWQQGNVFSCSVMHEALHNHYTQKSLSLSPG light: DIQMTQSPSSLSASVGDRVTITCRASENIYRNLAWYQQKPGKAPKLLLYAATNLADGVPSRFSGSGSGTDYTLTISSLQSEDFATYYCQHFWGTPWTFGQGTKVEIKRTVAAPSVFIFPPSDEQLKSGTASVVCLLNNFYPREAKVQWKVDNALQSGNSQESVTEQDSKDSTYSLSSTLTLSKADYEKHKVYACEVTHQGLSSPVTKSFNRGEC | 5.9 | 5.7 | 5.8 | 5.8 | 5.4 | 5.8
